Tests used:
[1] = biological target: T1, Cynomolgus CXCR2 (cynomolgus, UniProt Q28519 3-353 (rhesus entry)); assay: cell-based or functional assay
T1 chain: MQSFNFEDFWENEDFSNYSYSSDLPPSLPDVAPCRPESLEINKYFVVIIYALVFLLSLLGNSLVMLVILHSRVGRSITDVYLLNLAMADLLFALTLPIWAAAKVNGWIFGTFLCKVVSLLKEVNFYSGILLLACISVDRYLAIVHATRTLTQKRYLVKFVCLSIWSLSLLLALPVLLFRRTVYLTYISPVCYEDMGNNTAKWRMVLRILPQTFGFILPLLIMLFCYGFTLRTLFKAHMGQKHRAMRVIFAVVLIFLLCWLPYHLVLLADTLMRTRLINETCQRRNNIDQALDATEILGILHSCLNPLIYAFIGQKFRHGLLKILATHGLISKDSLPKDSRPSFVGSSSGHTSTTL

[2] = biological target: T2, Human CXCR2 (human, UniProt P25025 1-360); assay: cell-based or functional assay
T2 sequence: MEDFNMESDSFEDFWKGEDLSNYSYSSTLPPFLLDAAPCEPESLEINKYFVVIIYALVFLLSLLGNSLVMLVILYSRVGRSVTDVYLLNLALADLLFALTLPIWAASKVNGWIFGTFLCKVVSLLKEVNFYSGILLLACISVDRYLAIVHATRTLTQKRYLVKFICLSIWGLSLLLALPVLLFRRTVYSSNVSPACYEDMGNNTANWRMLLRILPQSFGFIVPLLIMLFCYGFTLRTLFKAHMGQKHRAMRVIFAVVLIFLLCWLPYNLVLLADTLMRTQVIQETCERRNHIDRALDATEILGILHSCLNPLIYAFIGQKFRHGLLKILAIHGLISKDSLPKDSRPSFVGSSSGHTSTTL

[3] = biological target: T1, Cynomolgus CXCR2; assay: FACS competition vs 3 nM FMAT-Blue Gro-α
Protocol: (§1) Multivalent anti-CXCR2Nanobodies were titrated against 3 nM FMAT-Blue-labeled Gro-α in the FACS ligand competition assay on human and cynomolgus CXCR2 (Table 14). On human CXCR2, blocking potencies range between double digit nM and sub-nM whereas on cynomolgus CXCR2, they range between single and double digit nM.

[4] = biological target: T2, Human CXCR2; assay: FACS competition vs 3 nM FMAT-Blue Gro-α
Protocol: as §1

B1: CXCR20036 (other)
chain: EVQLVESGGGLVQAGGSLTLSCAVSGSTFRINTMGWYRRAPGKQRELVAARDRGGYINYVDSVKGRFTVSRDNAKPTMYLQMNSLKPEDTAVYYCHAGTQDRTGRNFDRWGQGTQVTVSSGGGGSGGGGSGGGGSGGGGSGGGGSGGGGSGGGGSEVQLVESGGGLVQAGGSLRLSCAASGRTFSDYAMGWFRQAPGKEREFVAAITWNGGRVFYTASVKGRFTISRDNAKNTMYLQMNSLKPEDTAVYYCAADKDRRTDYLGHPVAYWGQGTQVTVSS
notes: Biparatopic: two VHH joined by a GlySer linker; also called 54B12-35GS-163D2; 54B12-163D2; not shown: C-terminal c-myc tag and His6 tag coded by pAX100
[1]
  FLIPR % inhibition of max: 100%
  FLIPR IC50 (GRO-α induced calcium release): 4.27 nM
[2]
  FLIPR % inhibition of max: 100%
  FLIPR IC50 (GRO-α induced calcium release): 7.86 nM
[3]
  % inhibition of max: 98%
  IC50: 2.27 nM
[4]
  % inhibition of max: 98%
  IC50: 0.7 nM

B2: CXCR20029 (other)
chain: EVQLVESGGGLVQPGGSLRLSCVASGRIFSSNAMGWFRQAPGKEREFVAAITWRSGGSAYYADSAKGRFTISRDNAKNTVYLQMNSLKPEDTAVYYCAAGGSSWLSFPPDYWGQGTQVTVSSGGGGSGGGGSGGGGSGGGGSGGGGSGGGGSGGGGSEVQLVESGGGLVQAGGSLTLSCAVSGSTFRINTMGWYRRAPGKQRELVAARDRGGYINYVDSVKGRFTVSRDNAKPTMYLQMNSLKPEDTAVYYCHAGTQDRTGRNFDRWGQGTQVTVSS
notes: Biparatopic: two VHH joined by a GlySer linker; also called 163E3-35GS-54B12; not shown: C-terminal c-myc tag and His6 tag coded by pAX100
[1]
  FLIPR % inhibition of max: 100%
  FLIPR IC50 (GRO-α induced calcium release): 10.1 nM
[2]
  FLIPR % inhibition of max: 100%
  FLIPR IC50 (GRO-α induced calcium release): 17.1 nM
[3]
  % inhibition of max: 98.5%
  IC50: 2.09 nM
[4]
  % inhibition of max: 98.5%
  IC50: 1.13 nM

B3: CXCR20018 (other)
chain: EVQLVESGGGLVQPGGSVRLSCVASGIIFRLSALGWTRQGPGKAREWVAGINSDGTTNYADPVKGRFTISRDNAKNTIYLHMDMLKPEDTAVYYCASGKYRGQGTQVTVSSGGGGSGGGGSGGGGSGGGGSGGGGSGGGGSGGGGSEVQLVESGGGLVQPGGSLRLSCVASGSIVRINTMGWYRQTPGKQRELVADITSGGNINYIDAVKGRFTISRDNTKNTVYLQMNSLKPEDTAVYYCNAEIVVLVGVWTQRARTGNYWGQGTQVTVSS
notes: Two different VHH joined by a GlySer linker; also called 137B7-35GS-97A9; not shown: C-terminal c-myc tag and His6 tag coded by pAX100
[3]
  % inhibition of max: 47%
  IC50: 50.8 nM
[4]
  % inhibition of max: 98%
  IC50: 1.9 nM

B4: CXCR20013 (bispecific antibody)
chain: EVQLVESGGELVQPGGSLRLSCAASGSILTINAMGWYRQAPGKQRELVVRRTRGGSTTYQDSVKGRFTISADIAKKTMYLQMNSLKPEDTAVYYCMLDDRGGVYWGQGTQVTVSSGGGGSGGGGSGGGGSGGGGSGGGGSGGGGSGGGGSEVQLVESGGGLVQPGGSLRLSCVASGSIVRINTMGWYRQTPGKQRELVADITSGGNINYIDAVKGRFTISRDNTKNTVYLQMNSLKPEDTAVYYCNAEIVVLVGVWTQRARTGNYWGQGTQVTVSS
notes: Biparatopic: two VHH joined by a GlySer linker; also called 2B2-35GS-97A9; not shown: C-terminal c-myc tag and His6 tag coded by pAX100
[1]
  FLIPR % inhibition of max: 100%
  FLIPR IC50 (GRO-α induced calcium release): 29.2 nM
[2]
  FLIPR % inhibition of max: 100%
  FLIPR IC50 (GRO-α induced calcium release): 2.93 nM
[3]
  % inhibition of max: 98.5%
  IC50: 4.2 nM
[4]
  % inhibition of max: 90%
  IC50: 0.9 nM

B5: CXCR20015 (other)
chain: EVQLVESGGELVQPGGSLRLSCAASGSILTINAMGWYRQAPGKQRELVVRRTRGGSTTYQDSVKGRFTISADIAKKTMYLQMNSLKPEDTAVYYCMLDDRGGVYWGQGTQVTVSSGGGGSGGGGSGGGGSGGGGSGGGGSGGGGSGGGGSEVQLVESGGGLVQPGGSVRLSCVASGIIFRLSALGWTRQGPGKAREWVAGINSDGTTNYADPVKGRFTISRDNAKNTIYLHMDMLKPEDTAVYYCASGKYRGQGTQVTVSS
notes: Two different VHH joined by a GlySer linker; also called 2B2-35GS-137B7; not shown: C-terminal c-myc tag and His6 tag coded by pAX100
[1]
  FLIPR % inhibition of max: 100%
  FLIPR IC50 (GRO-α induced calcium release): 2870 nM
[2]
  FLIPR % inhibition of max: 100%
  FLIPR IC50 (GRO-α induced calcium release): 2.78 nM
[3]
  % inhibition of max: 81.5%
  IC50: 99 nM
[4]
  % inhibition of max: 99%
  IC50: 0.7 nM

B6: CXCR20016 (other)
chain: EVQLVESGGGLVQPGGSVRLSCVASGIIFRLSALGWTRQGPGKAREWVAGINSDGTTNYADPVKGRFTISRDNAKNTIYLHMDMLKPEDTAVYYCASGKYRGQGTQVTVSSGGGGSGGGGSGGGGSGGGGSGGGGSGGGGSGGGGSEVQLVESGGELVQPGGSLRLSCAASGSILTINAMGWYRQAPGKQRELVVRRTRGGSTTYQDSVKGRFTISADIAKKTMYLQMNSLKPEDTAVYYCMLDDRGGVYWGQGTQVTVSS
notes: Two different VHH joined by a GlySer linker; also called 137B7-35GS-2B2; not shown: C-terminal c-myc tag and His6 tag coded by pAX100
[1]
  FLIPR % inhibition of max: 100%
  FLIPR IC50 (GRO-α induced calcium release): 1100 nM
[2]
  FLIPR % inhibition of max: 100%
  FLIPR IC50 (GRO-α induced calcium release): 2.36 nM
[3]
  % inhibition of max: 88%
  IC50: 5.7 nM
[4]
  % inhibition of max: 100%
  IC50: 0.8 nM

B7: CXCR20011 (VHH)
chain: EVQLVESGGGLVQPGGSLRLSCVASGSIVRINTMGWYRQTPGKQRELVADITSGGNINYIDAVKGRFTISRDNTKNTVYLQMNSLKPEDTAVYYCNAEIVVLVGVWTQRARTGNYWGQGTQVTVSSGGGGSGGGGSGGGGSGGGGSGGGGSGGGGSGGGGSEVQLVESGGGLVQPGGSLRLSCVASGSIVRINTMGWYRQTPGKQRELVADITSGGNINYIDAVKGRFTISRDNTKNTVYLQMNSLKPEDTAVYYCNAEIVVLVGVWTQRARTGNYWGQGTQVTVSS
notes: Bivalent: two VHH joined by a GlySer linker; also called 97A9-35GS-97A9; not shown: C-terminal c-myc tag and His6 tag coded by pAX100
[2]
  FLIPR % inhibition of max: 100%
  FLIPR IC50 (GRO-α induced calcium release): 137 nM
[3]
  % inhibition of max: 60%
  IC50: 97.4 nM
[4]
  % inhibition of max: 99%
  IC50: 35.2 nM

B8: CXCR20017 (other)
chain: EVQLVESGGGLVQPGGSLRLSCVASGSIVRINTMGWYRQTPGKQRELVADITSGGNINYIDAVKGRFTISRDNTKNTVYLQMNSLKPEDTAVYYCNAEIVVLVGVWTQRARTGNYWGQGTQVTVSSGGGGSGGGGSGGGGSGGGGSGGGGSGGGGSGGGGSEVQLVESGGGLVQPGGSVRLSCVASGIIFRLSALGWTRQGPGKAREWVAGINSDGTTNYADPVKGRFTISRDNAKNTIYLHMDMLKPEDTAVYYCASGKYRGQGTQVTVSS
notes: Two different VHH joined by a GlySer linker; also called 97A9-35GS-137B7; not shown: C-terminal c-myc tag and His6 tag coded by pAX100
[1]
  FLIPR % inhibition of max: 100%
  FLIPR IC50 (GRO-α induced calcium release): 1080 nM
[2]
  FLIPR % inhibition of max: 100%
  FLIPR IC50 (GRO-α induced calcium release): 22.9 nM
[3]
  % inhibition of max: 73%
  IC50: 29.5 nM
[4]
  % inhibition of max: 99%
  IC50: 3.4 nM

B9: CXCR20012 (other)
chain: EVQLVESGGGLVQPGGSVRLSCVASGIIFRLSALGWTRQGPGKAREWVAGINSDGTTNYADPVKGRFTISRDNAKNTIYLHMDMLKPEDTAVYYCASGKYRGQGTQVTVSSGGGGSGGGGSGGGGSGGGGSGGGGSGGGGSGGGGSEVQLVESGGGLVQPGGSVRLSCVASGIIFRLSALGWTRQGPGKAREWVAGINSDGTTNYADPVKGRFTISRDNAKNTIYLHMDMLKPEDTAVYYCASGKYRGQGTQVTVSS
notes: Bivalent: two VHH joined by a GlySer linker; also called 137B7-35GS-137B7; not shown: C-terminal c-myc tag and His6 tag coded by pAX100
[4]
  % inhibition of max: 99.1%
  IC50: 0.606 nM

B10: CXCR20027 (bispecific antibody)
chain: EVQLVESGGGLVQPGGSLRLSCVASGRIFSSNAMGWFRQAPGKEREFVAAITWRSGGSAYYADSAKGRFTISRDNAKNTVYLQMNSLKPEDTAVYYCAAGGSSWLSFPPDYWGQGTQVTVSSGGGGSGGGGSGGGGSGGGGSGGGGSGGGGSGGGGSEVQLVESGGGLVQAGGSLRLSCAASGRTFSDYAMGWFRQAPGKEREFVAAITWNGGRVFYTASVKGRFTISRDNAKNTMYLQMNSLKPEDTAVYYCAADKDRRTDYLGHPVAYWGQGTQVTVSS
notes: Two different VHH joined by a GlySer linker; also called 163E3-35GS-163D2; not shown: C-terminal c-myc tag and His6 tag coded by pAX100
[1]
  FLIPR % inhibition of max: 100%
  FLIPR IC50 (GRO-α induced calcium release): 12.7 nM
[2]
  FLIPR % inhibition of max: 100%
  FLIPR IC50 (GRO-α induced calcium release): 17.8 nM
[3]
  % inhibition of max: 97%
  IC50: 6.42 nM
[4]
  % inhibition of max: 100%
  IC50: 4.9 nM

B11: CXCR20019 (VHH)
chain: EVQLVESGGELVQPGGSLRLSCAASGSILTINAMGWYRQAPGKQRELVVRRTRGGSTTYQDSVKGRFTISADIAKKTMYLQMNSLKPEDTAVYYCMLDDRGGVYWGQGTQVTVSSGGGGSGGGSEVQLVESGGELVQPGGSLRLSCAASGSILTINAMGWYRQAPGKQRELVVRRTRGGSTTYQDSVKGRFTISADIAKKTMYLQMNSLKPEDTAVYYCMLDDRGGVYWGQGTQVTVSS
notes: Bivalent: two VHH joined by a 9GS linker; also called 2B2-9GS-2B2; not shown: C-terminal c-myc tag and His6 tag coded by pAX100
[3]
  % inhibition of max: 81%
  IC50: 1.8 nM
[4]
  % inhibition of max: 50.6%
  IC50: 0.044 nM

Reference: patent US20130330346A1 (Novartis, published 2013)
